Measured values from PMC3048587 (Biochemistry, 2011).

Target: Rac W56F mutant (UniProt P63000 1-192, W56F)
Assay: cell-based or functional assay

Mant-GDP nucleotide exchange (GEF activity of DHR-2c), relative to wild-type Rac: < 10 % of the level of wild-type Rac
B1: Dock180^DHR-2c (C-terminus of DHR-2 in Dock180, residues 1335-1657) (domain or fragment)
chain: KPDYFAVGYYGQGFPTFLRGKVFIYRGKEYERREDFEARLLTQFPNAEKMKTTSPPGDDIKNSPGQYIQCFTVKPKLDLPPKFHRPVSEQIVSFYRVNEVQRFEYSRPIRKGEKNPDNEFANMWIERTIYTTAYKLPGILRWFEVKSVFMVEISPLENAIETMQLTNDKINSMVQQHLDDPSLPINPLSMLLNGIVDPAVMGGFANYEKAFFTDRYLQEHPEAHEKIEKLKDLIAWQIPFLAEGIRIHGDKVTEALRPFHERMEACFKQLKEKVEKEYGVRIMPSSLDDRRGSRPRSMVRSFTMPSSSRPLSVASVSSLSSDS
